{"source": "patent US20030148383A1", "about": "“Methods for identifying proteins with N-terminal N-myristoylation” (Boehringer Ingelheim International GmbH, priority 2001, published 2003)", "key": {"[1]": {"molecular_target": "T1, Myristoyl-CoA:protein N-myristoyltransferase from Saccharomyces cerevisiae (Saccharomyces cerevisiae, UniProt P14743)", "T1 sequence (P14743 1-455)": "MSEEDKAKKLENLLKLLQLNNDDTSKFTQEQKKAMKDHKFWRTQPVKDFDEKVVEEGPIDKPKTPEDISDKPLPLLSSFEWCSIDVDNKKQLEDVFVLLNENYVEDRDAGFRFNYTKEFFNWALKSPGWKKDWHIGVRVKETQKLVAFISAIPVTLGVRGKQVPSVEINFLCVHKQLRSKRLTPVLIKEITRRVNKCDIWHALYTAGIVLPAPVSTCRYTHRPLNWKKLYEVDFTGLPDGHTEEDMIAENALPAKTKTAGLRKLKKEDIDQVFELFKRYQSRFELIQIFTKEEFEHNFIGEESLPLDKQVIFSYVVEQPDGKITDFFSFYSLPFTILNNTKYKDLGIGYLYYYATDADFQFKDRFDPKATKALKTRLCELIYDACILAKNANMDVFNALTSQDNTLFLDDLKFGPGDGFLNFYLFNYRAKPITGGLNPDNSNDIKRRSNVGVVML", "settings": "cited from earlier work; for Km: octapeptide substrate"}, "[2]": {"molecular_target": "T1, Myristoyl-CoA:protein N-myristoyltransferase from Saccharomyces cerevisiae", "assay": "kinetic measurements of substrate specificity of yeast NMT with octapeptides", "type": "biochemical", "settings": "ratio of the Km, Rocque et al. 1993 data", "source_text": "The enzyme Myristoyl-CoA:protein N-myristoyltransferase from Saccharomyces cerevisiae has been subject to extensive kinetic measurements to examine its substrate specificity (Towler, D. A., et al., Annu. Rev. Biochem. 57:69-99 (1988)). […] However, the relation of the affinities, certifying which substrates are binding better than others, should remain constant."}, "[3]": {"settings": "earlier publication, Towler et al. 1988"}}, "note": "Like-named read-outs stand apart in the source and are kept apart here."}
{"sequence": "GSSKSKPK [octapeptide substrate of yeast NMT]", "values": [{"measurement": "Km", "setting": "[1]; Rocque et al. 1993", "value": 105, "unit": "µM"}, {"measurement": "Km", "setting": "[1]; [3]", "value": 40, "unit": "µM"}]}
{"sequence": "GNAAAARR [octapeptide substrate of yeast NMT, derived from cAMP-dependent protein kinase]", "values": [{"measurement": "Km", "setting": "[1]; Rocque et al. 1993", "value": 31, "unit": "µM"}, {"measurement": "Km", "setting": "[1]; [3]", "value": 60, "unit": "µM"}, {"measurement": "higher affinity (lower Km) than GSSKSKPK", "setting": "[2]", "value": 3, "unit": "fold"}]}
{"sequence": "GPAAAARR [octapeptide, mutation of […] with proline on position 2]", "values": [{"measurement": "ability to become myristoylated", "setting": "[1]; mutation of octapeptide GNAAAARR to GPAAAARR, Towler et al. 1988", "value": "loss of the ability to become myristoylated"}]}
